Results as given in a protein production outcome set (Wang et al. 2014).

Assay: label from the status in PepcDB records

Sequence | protein production
MRRVFGAKKNTEPPPSIQDASDRINKRGDSVEDKIKKLDVELCKYKEQLKKTRPGPAQEAVKARAMRVLKQKKMYEGQRDMLYNQTFNLDQVSFAAEGLKDAQQTMTALKSANKELKGMMKTVKIQDIDNLQDEMMDLMDVSSEIQESLGRSYNIPDGLDEDDLMGELDALEADMGNETEADGMPSYLQPDTETDYDSELNLPAAPTGHNGAPHGRAQVNF | failed
MRRVISIFRKLSAVYCHTGNFAEGIRVCKYALGRFTEMEDKYKCIFTFNMSLYYNYLGEYGKALNAITGFESVIKATYEDRYYKVLLLKADCYYGAERYAESLSIYNKLISITLKDDFNNLCVYYNNMTQVYLRMGKRDMAVNCINTVINNLHNISDDFEALPQIYAELGKSYLMMADNDKSIKYLTIALKLSKDFKYYSVTKDILNELSKIKGNSNKLKLKDEFIILTENMGRSYDSLNHSLVFNIIQYYTRLGDVASINELCEYCKERKVG | failed
MRRVLMVNFGVLLLFCFGVLSNSFGQDNGGDSDINSTTAVYIVTLRQASSLHLFQQEAEEVKRVRDQSKHGDTSKFTRPKLQPRNISRSRYWRSRRSAIAQAHDSLLRNALKGEKYIKLYSFHYLINGFAVFVSSQQAETLSRRREVANIVLDFSVRTATTYTPQFMGLPKGAWVKEGGYETAGEGIVIGFIDTGIDPTHPSFNGTDTSQRQYPIPNHFSGVCEVTPDFPSGSCNRKLVGARHFAQSAITRGIFNSSEDYASPFDGDGHGTHTASIAAGNHGVSAVVSGHNFGSASGIAPRAHISVYKALYKSFGGFAADVVAAIDQAAQDGVDILSLSITPNRRPPGVATFFNPLDMAMLSAVKAGIFVVQAAGNTGPSPKSMSSFSPWIFTVGAASHDRDYSNSIVLGNNVSIPGVGLALRTDEGKKYTMISALDALKNKSSVVDKDMYVGECQDYGSFDKDVIRGNLLICSYSIRFVLGLSTIKQALAVAKNLSAKGVVFYMDPYVLGFQINPTPMDMPGIIIPSAEDSKVLLKYYNSSLVRDGTTKEIVRFGAVAAIAGGQNANFSNRAPKIMYYSARGPDPQDSLFNDADILKPNLVAPGNSIWGAWSSAATESTEFEGESFAMMSGTSMAAPHVAGVAALVKQKFRKFSPSAIASALSTTSVLFDNKGEAIMAQRAYANPDQTISPATPFDMGNGFVNATAALDPGLIFDTSFEDYMSFLCGINGSAPVVFNYTGTNCLRNNATISGSDLNLPSITVSKLNNTRTVQRLMTNIAGNETYTVSLITPFDVLINVSPTQFSIASGETKLLSVILTAKRNSSISSFGGIKLLGNAGHIVRIPVSVTVKIASKQ | failed
MRSLCAGGRAIGLSGPDSRRHHRPQGPSEGASLILPDLSSSIAVGALIYWMLLLTIKHVFADFIFQNKWMAMGKDAKTGWALPLLAHCSVHLVMTTLLMLILAPRYWYIGVIDFLIHLAIDRLKGFLVATYDVTNQDRWFWWLIGTDQALHHLTGFGLAIVLAANP | failed
MRSQALRADVLMLITAVIWGSAFVAQTSGMNHIGPFLYSGLRFALGSLCLLPLVLRKTPTDRQPEPLLNRGLLLGGVLMGLALALGINLQQVGLMFTTVTNAGFITGLYVIVVPLLGLLIGHKTGLGTWLGAVLAVVGMFLLSVSDSFHVASGDWLQLIGAFVWGGHVILVGVFAGRHDPIRLAFLQFATCAVVSLILALCLEPLRWEAIVGAGPAILYGGVVAVGIGYTLQVIAQKDAIASHAAIILSLEAVFAAIAGAWLLDESLQARGYFGCALMLSGMLVAQLWPQKPHSSTTTQRA | failed
MRSTKTNAMEAIMKKFMGIATAAVFGLGIFTTSAKAETIVTTDVLNVRENPTTESKVVGKLLDGYKVNVLHTENGWSKVQLNSGKEAFISADYTKDTYYVTANVLNVRAGANTDSEILGKLKKDDVIETTHQVQNDWIQFEYNGKTAYVHVPYLTGKAPVKVQPVAKVEKTTTVQDTAKVREAAKAQEVAETQAKAKAVEATKAREAAEAQAEVKAQEAAKAREAAKAQEAAKAQADAEAQAEVKAQEAAKAREAAKAQADAEAQAAAKAQEAAKAREAAKAQEAAEAREAAKAQEAREAAKAQEAAKAQKSATQQPVAKETETSTPSSSRELRVVATAYTADPLENGYKAGDQVKSALGHNLTANPNMKLIAVDPSVIPLGSKVWVEGYGVAIAGDTGGAIKGNKIDVLMPDKGSSSSWGRKTVTVKVLNLEHHHHHH | not failed
MRSYRAQGPLPGFYHYYPGVPAVVGVRVEERVNFCPAVWNTGLSADPPLFGVSISPKRFTHGLLLKARRFSASFHPFGQKDLVHWLGSHSGREVDKGQAPHFLGHTGVPILEGAYAAYELELLEVHTFGDHDLFVGRVVAVWEEEGLLDEKGRPKPGLALLYYGKGLYGRPAEETFAP | not failed
MRTERWWQDTSVTDHLFRQFGRFEFIQATRLLRHVPYHMDQTQWASEFQFGSSLALSFPKTEIEHLAQSDERIEMTSLVVGLTGTQGALPYTYTNKLKQSSRQQRREIQAFLGLFNHTLTVQYVDASLVHHLPVRYEVEQENHYLNILHALNGYISSHHQHNELDEYFAEFAGLMQGQNNTAHALTTMLTCIFKQKVMVKEFIREKFYLSDEQKTCLGGAQPSLLGINTFCGDTIEQIDGKIEIQIGPLKRKQYLDFLPSGRASTQLKHILATWCSPTLLVDLRLILDQDDVQPFCLDSVHQMGLGQGVFLTSQASNQDNQDTCYSLIGAVA | failed
MRTKNILAALALFLGISLPSLVEAANAYATGNVNVRTGPGTRYPRTGTIPAGATLTIRGCLNGYSWCEVIFAGQSGWASSNYLQATYQNRRRPVIHIGPVIGLPVIVHKPRPPHWEHRPRPPRPPHWGHRPRPPHWDHRPRPPRPQPRLEHHHHHH | not failed
MRTLVAPTHAPKRRMLLALLATPALALAQPAWTQQPPPVKLDVPYVPTPDDAVARMLEMADVTAQDTVIDLGSGDGRIAIAAVRDRGARSAMGVDIDPERIAEARANARKAGLADRVTFVQQDLFDTDISKATVLTMYLLPDVNLKLRPRILNSLAPGTRVVSHAFTMGEWDSDRYELVDGRSLYLWVVPAHAAGDWQVEDPAGPFTLSVRQDFQKVTASAQRQGERLGVAEAALRGTDLRFTVDAGSGPRTYVGRIQGDRMTAVQAPGNESGWRATRRAP | failed
MRTPAWLGSGMPLLFVLLWSTGFLGAKFGLPYAEPFTFLAIRLLLAAALLAAFALLSGAPWPGSARLAGHVAVAGLLVHGLYLGGVFLAIEHGMSAGLTSLLVGLQPLATAALAGIWLGEQVSRRQWLGLALGLAGVALVVLGRIHGGADGLAWAAVLVALAAITCGTLYQKRFCGGMDLRTGGVVQYLASGALLGLAALLFESREVQWSTPFVLTLGWLVLGLSFGAVGLLYTLIRHGAASKVASLFYLVPPVTALASWLLFDERLAPAAIGGMLLVMLGVALVNWPGRRA | failed
MRTPRRAPEPVQVVKQRRDATLRALVDGVPYIQFLGIEFERRGDELTGILPFDQKLIGNPLLPAIHGGVTAAFLEVTAIITLSWTYLWEDMESGAIDAKGLASGGMPRLPKTIDISTDYLRSGLPRDAYARARIVRSGRRYASVHVEAWQDNRDRLFAQATGHFLMPDRRDS | failed
MRTVPSLSMSKSRCNMLASTLDRPSPEDSQTLAEVERTITSGVGALCFSRGLERRYQTETRLQRREFLTAMGIGGSLIYNLFLITDWLILRDVFVYVAIGRLCLITPMFIIMLILARRLASRRAMETTAAVATVLCSLMPMVVMTYSESPYQIFYQLGMLLIMVYCTMIQQLPLRHAAAALSCMLIIQLVTTYIADFADFVIWQANALLFVSTVMLLLMASYFLERASRLSYLFALRGRLLQVQLLEFARTDALTRLFNRRYQDEVLTSVWERARKKQANVAIILLDIDHFKSYNDNYGHPQGDVCLKLLCKAIQQSANDGGAVAFRFGGEEVLVLMNADADQATKMAETLKATVAALKLPHPALGEDAHVTISLGVASGIAPLITYDTLISAADNALYAAKHAGRNCVFCQP | failed
MRVAVAGGTGLVGKYVVAELRAAGHTPVVLARSHGVDLTTGAGLAGKLSGSDAVIDVANIVTTRRKTAVDFFSRTTGHLIAAARAGGVAHLVTLSIVGSDEVDFGYYFGKRAQEELVRDGAVPWTVVRATQFFEFPEPLLNGVSPVVVVPRMLTRPVAAQDVAQTLVEHAVEGPAGMAPEIAGPDQLDMVDMARRIARARGSRRLVVPVTLPGKVGKAMTTGGLLPRGEYLRGRRTFDAHLASLRAA | failed
MRVDGLNGRPHSHWVINKVIGDSTMTFSNAQRLRPVRRHAIFQACALGFALALASGSAFAAAALTQPAQDPAKVAPASLAVSKIDFKRGEDGTGRLILQFNGQGASPDLRTQGDNVLVDISNARLPAELQRPLNVTDFATPVQRVEVKPSGSGSQLVLSTKGAFDSLAYQTGNEYVVEITPRKGQPAVGGVSPAAVTQAAAQIAARGYSGRPVTFNFQDVPVRTVLQLIAEESNLNIVASDTVQGNVTLRLMNVPWDQALDIVLRAKGLDKRRDGGVVWVAPQPELAKFEQDKEDARIAIENREDLITDYVQINYHNAAVIFKALTEAKGIGGGGGSGGGQGGQGGAGQQDNGFLSPRGRLVADERTNTLMISDIPKKVAQMRELISHIDRPVDQVLIESRIVIATDTFARDLGARFGIIGATGRGILSGSLDSNTNYLNTSAKRASEIANGGTSTTLPAHLFPSGLNVNLGAGGGFTTNTPGGLAYTLLGSNFNLDIELSAMQQEGRGEVVSNPRIVTANQREGVIKQGREIGYVTISGSGAGGGSQANVQFKEVLLELKVTPTITNDNRVFLNMNVKKDEVARLIDLPLYGTVPEINRREINTAVLVGDGETVVIGGVYEFTDRESVSKVPFLGDIPFLGNLFKKRGRSKEKAELLVFVTPKVLRVASATR | failed
MRVDRSSSSSTVSLLEGKIYVAGGFDPKTHTWSSVTSPSAVIRNESVAEHKSLGLGGKFYLFGYDSDKSAVVYNPKEDNVLFYRFHGLFHWYDYKGNFWKQVNGLGPVACTEKVAILAALDTFDNAR | failed
MRVGVLGAKGKVGATMVRAVAAADDLTLSAELDAGDPLSLLTDGNTEVVIDFTHPDVVMGNLEFLIDNGIHAVVGTTGFTAERFQQVESWLVAKPNTSVLIAPNFAIGAVLSMHFAKQAARFFDSAEVIELHHPHKADAPSGTAARTAKLIAEARKGLPPNPDATSTSLPGARGADVDGIPVHAVRLAGLVAHQEVLFGTEGETLTIRHDSLDRTSFVPGVLLAVRRIAERPGLTVGLEPLLDLH | not failed
MRVISRNLTAWSAGLIVVAIFLGAWLSHPLHRISGFAVTPAPVGTESLPPKASYSSRFASSDLNDFVHSSAVTALPGGDLMSVWFAGSREGAGDVEIRTSRFDAQAEEWGGEQVLATRESTQTGTGKYIRKLGNPVIALAPDNRLWLFYVSVSVGGWAGSSVNAMVSSDMGASWSAPRQLVTSPFLNISTLVRGAPVFHADGSIGLPVYHEFLGKFAEYLYLSADGEVIDKFRISRGKNSLQPTVVPLDGQRAVALLRYAGETFHRVLASRTEDGGQTWSEPYPLAPSNPNSSLAAVGVPGKGLLVALNDLREGRFKLSLYSTDEQMKVWRPLPDLDKSPDPLGTPFSLEVYKEVIGQGFRASSGALRQPMEAEFLSNLDQRVCAPQGCDFEYEYPYFIRSPDGLYHLVYSWNNTFIKHVSFNEAWLAEQLL | failed
MRVIVAYDGSPGADKAVGFALGLKDSIDKYFILYVSRDITDLSGQLVYISDETVEQQERLADEIVNKAKSLMTRSGVDYEVMKVDSNGEDISKVIVKIAQEKGIDVIFTGTRKLRGLDKFFLGSISSGILALSSCPVIVVP | not failed
MRVLHETTQELANWQYYFAIAVFLITYAIIISEKINRAVIALLGAALMVIMGVVDLHNAFTKHIEWGTITLLIGMMILVNITSKSGVFQYVAIKAAKGAQGNPIKILISLSLLTALGSAFLDNVTTVLLVVPVTLSITRILQVNPVPYLLSEIIFSNIGGTATLIGDPPNIMIGSANKHLDFNAFLLNLAPIVIIIIAVTAAILYFMYRKQLIADPVQVKKLMSLDEKQYIKDPVLMKKSLTVLGLTIVGFMTHSIFHVDAAIIALTGATVLMLIGVKEHEIEEVFASVEWVTIFFFAGLFVLVGGLIDIGLIKMLAQKVIGITGGDISYASILILWVSGIASATIDNIPFVATMIPLINDMAVGLGLSPADAQIDVLWWALALGACLGGNGTLIGASANVIVAGIASREGHKFSYMDFLKVGFPIMIVSLIISHIYIYVRYLM | failed
